# Results from patent publication US20170240596A1 (published 2017).
# No end group written: not given here.
# B1: GTI (peptide)
# peptide: GTIQPYPFSWGY
# modifications: also: FAM (fluorescein amidite) label, position not given here
# B2: YVN (peptide)
# peptide: YVNSHSILGYTG
# modifications: also: FAM label, position not given here
# B3: HSD (peptide)
# peptide: HSDNHYRPADKL
# modifications: also: FAM label, position not given here
# B4: Scrambled GTI (peptide)
# peptide: SGYQTFYWPGPI
# modifications: also: FAM label, position not given here
# B5: TGH (peptide)
# peptide: TGHLYPTRMEIQ
# modifications: also: FAM label, position not given here
# Experiments:
# [1] = target: C4-2; experiment: flow
# [2] = target: C4-2 cells; experiment: flow
# [3] = target: C4-2; experiment: flow cytometry; C4-2 cells; apparent Kd
# [4] = target: C4-2 cells; experiment: flow cytometry; C4-2 cells; apparent Kd
Binder,Kd [3] [µM],other results
B1,,Kd [1]: 8.91 µM; Kd [2]: 8.91 µM
B2,9.79,
B3,30.8,
B4,,Kd [4]: > 100 µM
B5,44.1,
